Blank lines part the entries; values can stand above or below the compound they belong to.
Assays:
[1] = Solubility of (poly)peptides in lipid phases via reverse micelles (dry addition) or HIP; assay type: physicochemical
Experimental: (Poly)peptide loaded RM were prepared utilizing 200 mM of surfactants dissolved within the oily phase (GML/C8 (1:4; m/m), GMCC/C8 (1:4; m/m) and GMCC/GML (1:4; m/m)) in order to guarantee formation of reverse micelles. Loaded reverse micelles were prepared by the addition of semaglutide to surfactant-oil solutions (200 mM ELA or 200 mM DOC) resulting in a final concentration of 50 mg/mL. The mixtures were vortexed and treated with ultrasound for 30 min before incubation at 1200 rpm at room temperature (RT). Formation of reverse micelles by dry addition method, describing the direct addition of the API in powdered form to lipophilic solvents without use of any additional solvents, was investigated for semaglutide and three further (poly)peptides for comparison. In that regard, semaglutide with a molecular weight of 4.1 kDa was compared to colistin representing the smallest investigated peptide (1.1 kDa). In addition, two larger polypeptides, lysozyme (LYS, 14.4 kDa) and bovine serum albumin (BSA, 66.4 kDa) were investigated. At predetermined time points the dissolved (poly)peptide in supernatant was quantified by HPLC after centrifugation at 12,045 RCF for 10 min.

Caco-2 monolayer = assay: Caco-2 permeation study; assay type: in vitro ADME, human; settings: Caco-2 on 24-well Transwell, 21 days, apical to basolateral, HBS pH 6.8, SEDDS 0.05% (v/v), 6 h; ELISA; means n = 4
Experimental: The ability of native semaglutide as well as semaglutide-RM loaded SEDDS and SEDDS containing HIP to permeate the intestinal epithelium was investigated using Caco-2 cells. Caco-2 cell line was seeded on a 24-well Transwell filters plate at a cell density of 1.25 × 10^5 cells/cm^2. Cells were cultivated for 21 days replacing the media every second day. On the day of the experiment, cells were washed twice using sterile HBS buffer pH 6.8. To start the experiment after the equilibration period, the buffer was removed and replaced with 100 µL of either native semaglutide solution in sterile HBS buffer pH 6.8 or semaglutide-RMs loaded SEDDS diluted to a concentration of 0.05% (v/v) with sterile HBS buffer pH 6.8. Sterile HBS buffer (500 µL) was added to basolateral side. At predetermined time points, 100 µL were withdrawn from basolateral chambers and replaced with prewarmed HBS. The amount of semaglutide in the basolateral chamber was measured through ELISA (KRIBIOLISA™ Semaglutide ELISA, Krishgen BioSystems, US). Transepithelial electric resistance (TEER) in a range of 1200–3300 ohm/cm^2 were measured ensuring integrity of cell monolayers (Evom2, World Precision Instrument Inc., USA).

[2] = Hydrophobic ion pairing with ethyl lauroyl arginate: precipitation efficiency; assay type: physicochemical; settings: 1:1 charge ratio (peptide:surfactant), peptide in 0.001 M NaOH, 2 h, 400 rpm, ambient temperature; mean ± SD
Experimental: Hydrophobic ion pairs were formed in order to increase lipophilicity of semaglutide according to previous studies. The peptide was dissolved in 0.001 M NaOH in a concentration of 10 mg/ml to obtain a negative net charge. Ethyl lauroyl arginate, as a cationic counter ion was dissolved in demineralized water. Equal amounts (500 µL: 500 µL) of peptide and surfactant solution were combined corresponding to a charge ratio of 1:1 (peptide:surfactant). Samples were agitated at 400 rpm for 2 h on a thermomixer (Eppendorf, Austria) at ambient temperature. Precipitates were separated from the solution by centrifugation at 12,045 RCF for 10 min (Minispin, Eppendorf, Austria). Precipitation efficiency was determined according to the following equation:1 [drawing 1]

[3] = cited from earlier work
log D lipid phase/water = assay type: physicochemical
Experimental: Retention of drug within lipid phase after emulsification is crucial for the active ingredient to reach the absorption membrane in intact form. Thus, high log Dlipid phase/water values are substantial for lipophilic complexes of semaglutide. In brief, 200 µL of peptide loaded RM or HIP complexes corresponding to 2 mg of semaglutide in the lipid phases GML/C8 (1:4; m/m), […] were underlaid with 200 µL of demineralized water and incubated at 300 rpm on a thermomixer for 24 h. In the following samples were centrifuged at 12,045 RCF for 10 min and 100 µL aliquots from both phases were withdrawn and the amount of peptide was quantified by HPLC. The distribution coefficient was calculated according to Eq. 3:3 [drawing 5]
where [drawing 6] corresponds to peptide concentration in the lipophilic phase after incubation and [drawing 7] to peptide concentration in the water phase after incubation. Log Dlipid phase/water values for reference (poly)peptides were determined in the same manner.

- Maximum solubility within reverse micelles ([1]; after 48 h to 72 h, dry addition, 200 mM ELA or DOC, 50 mg/mL added, RT, HPLC, means n ≥ 3): ~100%
- Solubility in RM in comparison to HIP ([1]; best performing lipid phase glycerol monocaprylocaprate:caprylic acid 1:4 (m/m)): at least 2 fold
- Apparent permeability coefficient (Papp) (Caco-2 monolayer): significantly lower Papp value
Compound: CC[C@H](C)[C@H](NC(=O)[C@H](Cc1ccccc1)NC(=O)[C@H](CCC(=O)O)NC(=O)[C@H](CCCCNC(=O)COCCOCCNC(=O)COCCOCCNC(=O)CC[C@H](NC(=O)CCCCCCCCCCCCCCCCC(=O)O)C(=O)O)NC(=O)[C@H](C)NC(=O)[C@H](C)NC(=O)[C@H](CCC(N)=O)NC(=O)CNC(=O)[C@H](CCC(=O)O)NC(=O)[C@H](CC(C)C)NC(=O)[C@H](Cc1ccc(O)cc1)NC(=O)[C@H](CO)NC(=O)[C@H](CO)NC(=O)[C@@H](NC(=O)[C@H](CC(=O)O)NC(=O)[C@H](CO)NC(=O)[C@@H](NC(=O)[C@H](Cc1ccccc1)NC(=O)[C@@H](NC(=O)CNC(=O)[C@H](CCC(=O)O)NC(=O)C(C)(C)NC(=O)[C@@H](N)Cc1cnc[nH]1)[C@@H](C)O)[C@@H](C)O)C(C)C)C(=O)N[C@@H](C)C(=O)N[C@@H](Cc1c[nH]c2ccccc12)C(=O)N[C@@H](CC(C)C)C(=O)N[C@H](C(=O)N[C@@H](CCCNC(=N)N)C(=O)NCC(=O)N[C@@H](CCCNC(=N)N)C(=O)NCC(=O)O)C(C)C [semaglutide]

Compound: bovine serum albumin [66.4 kDa reference polypeptide]
- Solubility within reverse micelles ([1]; even after prolonged incubation time, dry addition, 200 mM surfactant, RT, HPLC): below 1 mg/mL
- Precipitation efficiency of HIP with ethyl lauroyl arginate [2]: 39.1 ± 2.2%
- Isoelectric point (IEP) [3]: 5.0

- Change in lipophilicity (log D lipid phase/water) in RM (log D lipid phase/water; RM formed with docusate): enhanced lipophilicity
- Change in lipophilicity (log D lipid phase/water) in RM (log D lipid phase/water; RM formed with ethyl lauroyl arginate): almost no increase in lipophilicity
Compound: colistin [1.1 kDa reference peptide]
- Isoelectric point (IEP) [3]: 5.0

Compound: lysozyme [14.4 kDa reference polypeptide]
- Solubility in RM, times lower compared to semaglutide ([1]; reverse micelles, dry addition, pronounced increase only after 72 h): about 10 times
- Precipitation efficiency of HIP with ethyl lauroyl arginate [2]: 0.0 ± 1.7%
- Improvement in lipophilicity in RM compared to the native peptide (log D lipid phase/water; log D lipid phase/water, RM): up to 600 fold
- Isoelectric point (IEP) [3]: 11.0
